Results on one protein are retold here after paper PMC10804683, “Identification of the pyridoxal 5′‐phosphate allosteric site in human pyridox(am)ine 5′‐phosphate oxidase” (Protein Science : A Publication of the Protein Society, 2024).

Substrate in the data set: Cc1ncc(COP(=O)(O)O)c(CN)c1O
Kind of data set: purified protein, by the assay type. To be noted: other: F48A, 50 mM Tris–HCl pH 7.6, 37°C, 2 μM enzyme.

B1: human PNPO F48A variant (Homo sapiens; F48A) (protein)
chain: MTCWLRGVTATFGRPAEWPGYLSHLCGRSAAMDLGPMRKSYRGDREAAEETHLTSLDPVKQFAAWFEEAVQCPDIGEANAMCLATCTRDGKPSARMLLLKGFGKDGFRFFTNFESRKGKELDSNPFASLVFYWEPLNRQVRVEGPVKKLPEEEAECYFHSRPKSSQIGAVVSHQSSVIPDREYLRKKNEELEQLYQDQEVPKPKSWGGYVLYPQVMEFWQGQTNRLHDRIVFRRGLPTGDSPLGPMTHRGEEDWLYERLAP
One may read the Km as the substrate concentration at which the rate is half of its maximum. For orientation: kcat means the maximal rate divided by the concentration of active sites. As to B1, the Km came to 100 ± 5 µM and the kcat worked out at 0.1785 ± 0.003 s⁻¹.
